Results published in patent publication US12139520B2 (priority 2020, dated 2024).
Numbered stars: 1 amine (or outer) side, 2 acyl side, 3 side chain; on linkers, the order of the positions; unused ones are H or OH. Bridge positions count the residues as written; N and C are the ends. Square brackets hold non-standard residues; d marks the D form. Side chains are listed from the residue outwards. Ends that are not written are not given here. * marks the point of attachment. C20 diacid = O=C(O)CCCCCCCCCCCCCCCCCCC(=O)*; γGlu = O=C(O)[C@H](CCC(=O)[*:2])N[*:1]; Hyp = O=C(O)[C@@H]1C[C@@H](O)CN1; Trx = NC[C@H]1CC[C@H](C(=O)O)CC1; AEEA = NCCOCCOCC(=O)O

B1: SEQ ID NO: 233 (peptide)
peptide: KCNTATCTVQRLAEQIYQFTDKDKDNVAPPTNVGSNG[Hyp]-NH2
modifications: disulfide 2-7 (inferred); not fully specified (N-terminus); ends not checked; also: N-terminal Lys carries two C20DA-OEG-γGlu-OEG arms ((...)2-K)

Each binder was assayed against T1, hAMY3R (human, UniProt P30988) (assay: cell-based or functional assay).
T1 sequence 1: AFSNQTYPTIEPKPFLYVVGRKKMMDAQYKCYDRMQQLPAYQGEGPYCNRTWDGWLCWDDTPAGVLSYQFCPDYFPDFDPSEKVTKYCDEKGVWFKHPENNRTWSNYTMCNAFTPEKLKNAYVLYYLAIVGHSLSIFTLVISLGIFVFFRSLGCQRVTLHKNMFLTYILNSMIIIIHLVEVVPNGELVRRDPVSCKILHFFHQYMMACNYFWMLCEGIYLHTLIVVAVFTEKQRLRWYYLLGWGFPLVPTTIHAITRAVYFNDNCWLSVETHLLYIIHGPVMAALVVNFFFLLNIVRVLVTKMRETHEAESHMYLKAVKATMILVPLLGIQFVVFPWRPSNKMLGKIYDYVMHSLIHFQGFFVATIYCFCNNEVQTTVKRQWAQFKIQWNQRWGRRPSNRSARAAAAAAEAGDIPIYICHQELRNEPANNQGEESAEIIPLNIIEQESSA
T1 sequence 2: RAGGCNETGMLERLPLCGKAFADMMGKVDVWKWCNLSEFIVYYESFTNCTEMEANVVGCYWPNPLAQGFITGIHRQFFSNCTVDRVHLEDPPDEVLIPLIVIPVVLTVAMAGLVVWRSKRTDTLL

Binder	hAMY3R EC50 (cAMP) [nM]
KCNTATCATQRLANFLVQFTDKDKDNVAPRSKISPQGY [SEQ ID NO: 234]	0.227
GCRTGTCTVQRLAHQIYQFTNKDKDNVAPRSKISPQH[Hyp]-NH2 (disulfide 2-7 (inferred); ends not checked) [SEQ ID NO: 219]	0.171
GCRTGTCTVQRLAHQIHQFTNKDKDNVAPRSKISPQT[Hyp]-NH2 (disulfide 2-7 (inferred); ends not checked) [SEQ ID NO: 227]	0.187
GCRTGTCTVQRLAHQIYQFTNKDKDNVAPRSKISPQF[Hyp]-NH2 (disulfide 2-7 (inferred); ends not checked) [SEQ ID NO: 238]	0.235
{C20 diacid-γGlu}-KCNTLTCTVQRLAHQIYQFTDKDKDNVAPPTNVGSNG[Hyp]-NH2 (disulfide 2-7 (inferred); ends not checked) [SEQ ID NO: 225]	0.186
GCRFGTCTVQRLAHQLYQFTDKDKDNVAPRSKISPQT[Hyp]-NH2 (disulfide 2-7 (inferred); ends not checked) [SEQ ID NO: 217]	0.167
GCRTGTCTVQRLAHQIYQFTDKFKDNVAPRSKISPQM[Hyp]-NH2 (disulfide 2-7 (inferred); ends not checked) [SEQ ID NO: 236]	0.234
{C20 diacid-Trx-γGlu-AEEA-AEEA}-K([AEEA-AEEA-γGlu-Trx-C20 diacid])CNTATCTVQRLAEQIYQFTDKDKDNVAPPTNVGSNG[Hyp] (disulfide 2-7 (inferred); ends not checked) [SEQ ID NO: 221]	0.184
{C20 diacid-γGlu}-GCRFGTCTVQRLAHFLYQFTDKDKDNVAPRTKVGSNGY-NH2 (disulfide 2-7 (inferred); ends not checked) [SEQ ID NO: 223]	0.186
GCRTGTCTVQRLAHQIYQFTNKDKDNVAPRSKISPQW[Hyp]-NH2 (disulfide 2-7 (inferred); ends not checked) [SEQ ID NO: 220]	0.182
GCRTGTCTVQRLAHQIYQFTDKDKDNVAPRTKVSPQG[Hyp]-NH2 (disulfide 2-7 (inferred); ends not checked) [SEQ ID NO: 216]	0.164
{C20 diacid-γGlu}-KCNTATCTVQRLAHQITQFTDKDKDNVAPPTNVGSNG[Hyp]-NH2 (disulfide 2-7 (inferred); ends not checked) [SEQ ID NO: 22]	0.008
GCRFGTCTVQRLAHQIYQFTDKDKDNVAPRSNIGPQG[Hyp]-NH2 (disulfide 2-7 (inferred); ends not checked) [SEQ ID NO: 229]	0.207
{C20 diacid-γGlu}-KCNTYTCTVQRLAHQIYQFTDKDKDNVAPPTNVGSNG[Hyp]-NH2 (disulfide 2-7 (inferred); ends not checked) [SEQ ID NO: 231]	0.209
GCRTGTCTVQRLAHQIYQFTDKDKDNVAPRSNVSPQG[Hyp]-NH2 (disulfide 2-7 (inferred); ends not checked) [SEQ ID NO: 224]	0.186
GCRTGTCTVQRLAHQIYQFTNKDKDNVAPRSKISPQQ[Hyp]-NH2 (disulfide 2-7 (inferred); ends not checked) [SEQ ID NO: 232]	0.213

Binder	hAMY3R EC50 (cAMP) [nM]
B1	0.22
GCRFGTCTVQRLAHQIYQFTDKDKDNVAPSSKISPQT[Hyp]-NH2 (disulfide 2-7 (inferred); ends not checked) [SEQ ID NO: 240]	0.24
KCNTATCTVQRLAHQIYQFADKDKDNVAPPTNVGSNG[Hyp]-NH2 (disulfide 2-7 (inferred); ends not checked) [SEQ ID NO: 23]	0.008
KCNTATCTVQRLAHQIYQFTAKDKDNVAPPTNVGSNG[Hyp]-NH2 (disulfide 2-7 (inferred); ends not checked) [SEQ ID NO: 24]	0.008
GCRTGTCTVQRLAHQIHQFTDKDKDNVAPRSKISPQT[Hyp]-NH2 (disulfide 2-7 (inferred); ends not checked) [SEQ ID NO: 228]	0.205
GCRMGTCTVQRLAHQIYQFTDKDKDNVAPSSKISPQT[Hyp]-NH2 (disulfide 2-7 (inferred); ends not checked) [SEQ ID NO: 222]	0.184
GCRTGTCTVQRLAHQIYQFTDKFKDNVAPRSKISPQTM [SEQ ID NO: 215]	0.161
GCRTGTCTVQRLAHQIYQFTDKFKDNVAPRSKISPQTP [SEQ ID NO: 235]	0.233
GCRTGTCTVQRLAHQIYQFTDKFKDNVAPRSKISPQTY [SEQ ID NO: 230]	0.208
GCRTGTCTVQRLAHQIYQFTDKFKDNVAPRSKISPQTA [SEQ ID NO: 241]	0.242
GCRTGTCTVQRLAHQIYQFTDKFKDNVAPRSKISPQTF [SEQ ID NO: 239]	0.236
GCRTGTCTVQRLAHQIYQFTNKDKDNVAPRSKISPQTW [SEQ ID NO: 226]	0.186
GCRTGTCTVQRLAHQIYQFTNKDKDNVAPRSKISPQTM [SEQ ID NO: 237]	0.235
GCRTGTCTVQRLAHQIYQFTNKDKDNVAPRSKISPQTR [SEQ ID NO: 242]	0.248
GCRTGTCTVQRLAHQIYQFTDKFKDNVAPRSKISPQA[Hyp]-NH2 (disulfide 2-7 (inferred); ends not checked) [SEQ ID NO: 218]	0.169

What follows are binders tested against hAM1R (human, UniProt Q16602) (assay: cell-based or functional assay).

Binder	hAM1R EC50 (cAMP) [µM]
KCNTATCATQRLANFLVQFTDKDKDNVAPRSKISPQGY [SEQ ID NO: 234]	> 5
GCRTGTCTVQRLAHQIYQFTNKDKDNVAPRSKISPQH[Hyp]-NH2 (disulfide 2-7 (inferred); ends not checked) [SEQ ID NO: 219]	4.25
GCRTGTCTVQRLAHQIHQFTNKDKDNVAPRSKISPQT[Hyp]-NH2 (disulfide 2-7 (inferred); ends not checked) [SEQ ID NO: 227]	4.57
GCRTGTCTVQRLAHQIYQFTNKDKDNVAPRSKISPQF[Hyp]-NH2 (disulfide 2-7 (inferred); ends not checked) [SEQ ID NO: 238]	> 5
{C20 diacid-γGlu}-KCNTLTCTVQRLAHQIYQFTDKDKDNVAPPTNVGSNG[Hyp]-NH2 (disulfide 2-7 (inferred); ends not checked) [SEQ ID NO: 225]	> 5
GCRFGTCTVQRLAHQLYQFTDKDKDNVAPRSKISPQT[Hyp]-NH2 (disulfide 2-7 (inferred); ends not checked) [SEQ ID NO: 217]	> 5
GCRTGTCTVQRLAHQIYQFTDKFKDNVAPRSKISPQM[Hyp]-NH2 (disulfide 2-7 (inferred); ends not checked) [SEQ ID NO: 236]	2.24
{C20 diacid-Trx-γGlu-AEEA-AEEA}-K([AEEA-AEEA-γGlu-Trx-C20 diacid])CNTATCTVQRLAEQIYQFTDKDKDNVAPPTNVGSNG[Hyp] (disulfide 2-7 (inferred); ends not checked) [SEQ ID NO: 221]	> 5
{C20 diacid-γGlu}-GCRFGTCTVQRLAHFLYQFTDKDKDNVAPRTKVGSNGY-NH2 (disulfide 2-7 (inferred); ends not checked) [SEQ ID NO: 223]	0.0477
GCRTGTCTVQRLAHQIYQFTNKDKDNVAPRSKISPQW[Hyp]-NH2 (disulfide 2-7 (inferred); ends not checked) [SEQ ID NO: 220]	> 5
GCRTGTCTVQRLAHQIYQFTDKDKDNVAPRTKVSPQG[Hyp]-NH2 (disulfide 2-7 (inferred); ends not checked) [SEQ ID NO: 216]	2.98
{C20 diacid-γGlu}-KCNTATCTVQRLAHQITQFTDKDKDNVAPPTNVGSNG[Hyp]-NH2 (disulfide 2-7 (inferred); ends not checked) [SEQ ID NO: 22]	> 5
GCRFGTCTVQRLAHQIYQFTDKDKDNVAPRSNIGPQG[Hyp]-NH2 (disulfide 2-7 (inferred); ends not checked) [SEQ ID NO: 229]	2.98
{C20 diacid-γGlu}-KCNTYTCTVQRLAHQIYQFTDKDKDNVAPPTNVGSNG[Hyp]-NH2 (disulfide 2-7 (inferred); ends not checked) [SEQ ID NO: 231]	> 5
GCRTGTCTVQRLAHQIYQFTDKDKDNVAPRSNVSPQG[Hyp]-NH2 (disulfide 2-7 (inferred); ends not checked) [SEQ ID NO: 224]	2.98
GCRTGTCTVQRLAHQIYQFTNKDKDNVAPRSKISPQQ[Hyp]-NH2 (disulfide 2-7 (inferred); ends not checked) [SEQ ID NO: 232]	> 5

Binder	hAM1R EC50 (cAMP) [µM]
B1	> 5
GCRFGTCTVQRLAHQIYQFTDKDKDNVAPSSKISPQT[Hyp]-NH2 (disulfide 2-7 (inferred); ends not checked) [SEQ ID NO: 240]	> 5
KCNTATCTVQRLAHQIYQFADKDKDNVAPPTNVGSNG[Hyp]-NH2 (disulfide 2-7 (inferred); ends not checked) [SEQ ID NO: 23]	> 5
KCNTATCTVQRLAHQIYQFTAKDKDNVAPPTNVGSNG[Hyp]-NH2 (disulfide 2-7 (inferred); ends not checked) [SEQ ID NO: 24]	> 5
GCRTGTCTVQRLAHQIHQFTDKDKDNVAPRSKISPQT[Hyp]-NH2 (disulfide 2-7 (inferred); ends not checked) [SEQ ID NO: 228]	> 5
GCRMGTCTVQRLAHQIYQFTDKDKDNVAPSSKISPQT[Hyp]-NH2 (disulfide 2-7 (inferred); ends not checked) [SEQ ID NO: 222]	> 5
GCRTGTCTVQRLAHQIYQFTDKFKDNVAPRSKISPQTM [SEQ ID NO: 215]	> 5
GCRTGTCTVQRLAHQIYQFTDKFKDNVAPRSKISPQTP [SEQ ID NO: 235]	1.42
GCRTGTCTVQRLAHQIYQFTDKFKDNVAPRSKISPQTY [SEQ ID NO: 230]	> 5
GCRTGTCTVQRLAHQIYQFTDKFKDNVAPRSKISPQTA [SEQ ID NO: 241]	2.29
GCRTGTCTVQRLAHQIYQFTDKFKDNVAPRSKISPQTF [SEQ ID NO: 239]	> 5
GCRTGTCTVQRLAHQIYQFTNKDKDNVAPRSKISPQTW [SEQ ID NO: 226]	> 5
GCRTGTCTVQRLAHQIYQFTNKDKDNVAPRSKISPQTM [SEQ ID NO: 237]	4.25
GCRTGTCTVQRLAHQIYQFTNKDKDNVAPRSKISPQTR [SEQ ID NO: 242]	> 5
GCRTGTCTVQRLAHQIYQFTDKFKDNVAPRSKISPQA[Hyp]-NH2 (disulfide 2-7 (inferred); ends not checked) [SEQ ID NO: 218]	> 5
